From the supplement of paper PMC10724198
± gives the standard deviation of the averaged measurements.

Test system: Saccharomyces cerevisiae
Assay: protein stability index of tFT-peptide fusion (C-terminal peptide) (PSI (0-1 scale)); higher = more stable (slower turnover)
Conditions: genetic background: wild type; temperature: 30 C
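Note: PSI is a weighted mean of sequencing reads over stability bins, variants kept only with over 10 reads, mCherry proximal and sfGFP distal, peptide attached via GGGS linker.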

Sequence | protein stability index
LIIMPTFDISAP | 0.7273 ± 0.0059
LILEKHEMIGRR | 0.681 ± 0.026
LIPLSLPSCPLS | 0.69 ± 0.085
LITCHSHKPQQI | 0.704 ± 0.098
LKRKRKYKKQGV | 0.786 ± 0.01
LKRRREGEPGKQ | 0.625 ± 0.053
LKRSYKKQRDNV | 0.698 ± 0.14
LLAFSPFLPLPP | 0.667 ± 0.046
LLANLRSSIDIQ | 0.709 ± 0.18
LLCGVLGLAWVW | 0.553 ± 0.029
LLCRGLGSVGRR | 0.63 ± 0.18
LLDLVVTAMCVL | 0.587 ± 0.032
LLESFCVSWCSW | 0.617 ± 0.012
LLFDIYSPTCPS | 0.628 ± 0.02
LLFLPRPPVCSR | 0.649 ± 0.11
LLGRRSHTPDEP | 0.723 ± 0.013
LLHPFPPLCRHP | 0.716 ± 0.018
LLHPSPTPPCPP | 0.696 ± 0.06
LLLLFLCSPSSL | 0.496 ± 0.041
LLLLRPPLGASF | 0.711 ± 0.016
LLLPPPLSASSS | 0.633 ± 0.028
LLLRGSGRSLAL | 0.709 ± 0.0082
LLLRLAASSSLS | 0.703 ± 0.027
LLLSQSSFCLTC | 0.637 ± 0.046
LLNAGAMKGRLG | 0.6782 ± 0.0038
LLNNNLNQRIYQ | 0.729 ± 0.019

Sequence | protein stability index
LLPALPPRCISF | 0.7343 ± 0.005
LLPLLPPAPPSP | 0.687 ± 0.024
LLPPAPLPPSLG | 0.722 ± 0.016
LLPPFPPPSLFS | 0.667 ± 0.01
LLPPPPPPPFSD | 0.653 ± 0.079
LLPPPPPPPSTP | 0.772 ± 0.0067
LLPPSPFTPPPF | 0.742 ± 0.076
LLPVFSYVPTFH | 0.648 ± 0.047
LLQFRATFPTTV | 0.721 ± 0.036
LLRFRSFPSAFF | 0.723 ± 0.084
LLRFSFLHFLFY | 0.6116 ± 0.003
LLRSSASISLKK | 0.738 ± 0.059
LLRVMRAVFSGL | 0.623 ± 0.015
LLSIGTSTLFLL | 0.636 ± 0.017
LLSLVSDFLFGL | 0.698 ± 0.042
LLSPHPSCRPTP | 0.584 ± 0.037
LLSPSPPLLPPL | 0.763 ± 0.036
LLYAFSSFLRAP | 0.647 ± 0.046
LLYSTRRCIFEF | 0.645 ± 0.034
LNIVVTQNKNKK | 0.73 ± 0.035
LNPPYLAPPPPF | 0.739 ± 0.045
LPAPAGPEPPRT | 0.6747 ± 0.00069
LPAPPPLPPPHP | 0.712 ± 0.065
LPAPPPPPRPLA | 0.683 ± 0.021
LPASAPFPLSPP | 0.7 ± 0.035
LPDAPCLCSGLL | 0.714 ± 0.013

Sequence | protein stability index
LPFTLLPPVLSL | 0.596 ± 0.0062
LPGFPPSLLPRL | 0.777 ± 0.059
LPGGVGCVGSPV | 0.721 ± 0.037
LPGLSRATTVYP | 0.679 ± 0.065
LPGPICSPPTGS | 0.693 ± 0.011
LPGSLISPSSPP | 0.721 ± 0.021
LPHLDPPPLPPP | 0.6386 ± 0.0052
LPHSNWAGRVIE | 0.703 ± 0.025
LPHTVITVPDPQ | 0.628 ± 0.065
LPLHRFHPPPPY | 0.715 ± 0.041
LPLPHALGSWSY | 0.7278 ± 0.0061
LPLPPPPAPPPL | 0.7015 ± 0.0012
LPLPVPSLPSAP | 0.728 ± 0.019
LPLSFPTLPPPP | 0.66 ± 0.055
LPLSPRCFSLLG | 0.6774 ± 0.0023
LPLSTLGPLARL | 0.725 ± 0.18
LPLVLSPSPPHP | 0.711 ± 0.061
LPLVSLLCLLPR | 0.668 ± 0.038
LPLYPFGLLLPL | 0.686 ± 0.043
LPPAAPPPPIPA | 0.599 ± 0.0079
LPPASSPPLLTP | 0.696 ± 0.083
LPPAVIVCVLPS | 0.586 ± 0.0097
LPPGSTPDSPTL | 0.706 ± 0.028
LPPHSPALRLPR | 0.708 ± 0.0097
LPPIAFPPSFSP | 0.69983 ± 0.00059
LPPLGAPQPPPP | 0.731 ± 0.021

Sequence | protein stability index
LPPLPLPPATTP | 0.715 ± 0.04
LPPLPLRSLSSP | 0.746 ± 0.025
LPPLPPLILFPL | 0.684 ± 0.082
LPPLPPRVLFNL | 0.5604 ± 0.00084
LPPPAAPPPALA | 0.691 ± 0.032
LPPPHYPHHTAS | 0.679 ± 0.052
LPPPLPPPGPPF | 0.715 ± 0.013
LPPPPHRSRPPP | 0.66 ± 0.06
LPPPPPPPPLLP | 0.696 ± 0.0022
LPPPPPPPPSTP | 0.734 ± 0.0076
LPPPPSPESPLS | 0.722 ± 0.045
LPPPRPHLSFVP | 0.72 ± 0.012
LPPPSPPPPLSP | 0.621 ± 0.01
LPPPSPTGTFPP | 0.7 ± 0.095
LPPPTLASTPPP | 0.77 ± 0.045
LPPPVSPLVCLL | 0.752 ± 0.047
LPPSPEPLPPRR | 0.717 ± 0.059
LPPSPLLLTSPP | 0.687 ± 0.016
LPPSPPLSPITS | 0.55 ± 0.024
LPRAPPPPPLLL | 0.757 ± 0.0076
LPRPSALLLRSL | 0.5 ± 0.12
LPRPYRPASTCT | 0.656 ± 0.016
LPRRSSRRQYAA | 0.751 ± 0.022
LPRSASLHVRPH | 0.707 ± 0.023
LPSFPRISPPSI | 0.656 ± 0.016
LPSLLYIFPPLS | 0.6975 ± 0.0068

Sequence | protein stability index
LPSPPPAPTPGP | 0.681 ± 0.019
LPSPRPSPSRVP | 0.676 ± 0.038
LPSTLLLPLASP | 0.712 ± 0.018
LPTLPLPHRHHL | 0.742 ± 0.0072
LPTSTRRGGSHG | 0.6911 ± 0.0055
LPVCAFGWPVKS | 0.6566 ± 0.0037
LPVDPPLGGHPT | 0.655 ± 0.03
LPWCSTLEIRER | 0.694 ± 0.011
LPYSPPSLTLPR | 0.666 ± 0.086
LQFSTSMGVLMV | 0.591 ± 0.01
LQHGKSRCAFRK | 0.652 ± 0.026
LQPATGPQRVIS | 0.665 ± 0.03
LQSGALEHLGAS | 0.716 ± 0.074
LQSPGAFFSVSK | 0.7 ± 0.018
LQTLPAPHTPFP | 0.643 ± 0.039
LQWAAGLRTTSP | 0.692 ± 0.071
LRARSSKPPYWL | 0.737 ± 0.028
LRAWPILPSRVL | 0.641 ± 0.014
LRCRLCRFFPFL | 0.714 ± 0.044
LRFGLRCPLYHL | 0.799 ± 0.11
LRFLVVTGSSCS | 0.665 ± 0.052
LRGGGGIVVGVV | 0.563 ± 0.012
LRGGSRWVSGGY | 0.636 ± 0.026
LRGKLGNCLGLL | 0.733 ± 0.028
LRGLIDVKSSLK | 0.758 ± 0.052
LRGLVGEYRRLK | 0.656 ± 0.057

Sequence | protein stability index
LRGVGGAGVFFG | 0.675 ± 0.025
LRGVSGTLSSSC | 0.6733 ± 0.0045
LRKSSIQRQKKR | 0.653 ± 0.034
LRLAVVSHSCGA | 0.639 ± 0.023
LRLFAGTFSGTP | 0.698 ± 0.03
LRLIPPLTTFDY | 0.645 ± 0.098
LRLLRPVPPRVF | 0.5405 ± 0.0019
LRLPSPLPSPPS | 0.6283 ± 0.0034
LRLTCRPWGLFF | 0.6377 ± 0.0051
LRPPLPPPCPPP | 0.599 ± 0.12
LRPPPPPASVCR | 0.646 ± 0.029
LRPPSCCPLEIQ | 0.705 ± 0.076
LRPQKIPASSEA | 0.678 ± 0.0077
LRQRAHRPYFRS | 0.706 ± 0.019
LRSGRCFFVARL | 0.73 ± 0.068
LRSMLRCPSPLS | 0.759 ± 0.031
LRSPPPPAQPFV | 0.69 ± 0.0075
LRTRKKTIDHHN | 0.663 ± 0.013
LRVGGKRREVMG | 0.709 ± 0.055
LRVYIRAAWVGL | 0.604 ± 0.016
LSALGGVLWWWC | 0.616 ± 0.026
LSARPFPPLMYS | 0.6968 ± 0.0025
LSASALEFSSPP | 0.699 ± 0.0069
LSFAGLPFCPGL | 0.722 ± 0.13
LSFRPPLHPFAL | 0.695 ± 0.01
LSFSPSFLPDSP | 0.782 ± 0.062

Sequence | protein stability index
LSGSSNRVLFDL | 0.728 ± 0.053
LSHAHLSPTSSA | 0.708 ± 0.088
LSILVGDREGSV | 0.753 ± 0.13
LSLCYCALTSSN | 0.541 ± 0.0097
LSLFFSSFLITF | 0.628 ± 0.12
LSLFISPTACLT | 0.584 ± 0.01
LSLFLAWSLFFL | 0.487 ± 0.083
LSLFLPFRFFRS | 0.699 ± 0.025
LSLFSLSPSFSR | 0.718 ± 0.013
LSLPFLYCFATL | 0.518 ± 0.0056
LSLSPLPAPCPP | 0.713 ± 0.071
LSLTIYVSELFR | 0.587 ± 0.0084
LSNGVCSVSFLL | 0.672 ± 0.024
LSPCCFLTSSSF | 0.71 ± 0.033
LSPHPPITHPTP | 0.683 ± 0.034
LSPLIHSPRPFA | 0.752 ± 0.061
LSPPLPARPAAS | 0.687 ± 0.034
LSPPLRFPPPPP | 0.709 ± 0.073
LSPSLPLPNPSP | 0.729 ± 0.044
LSPSMSRLWGSK | 0.7365 ± 0.0033
LSPSSPHLPFPL | 0.702 ± 0.038
LSRGPYRPHVNP | 0.69 ± 0.051
LSRPPPPLLPSV | 0.749 ± 0.03
LSRSSQPLPPPH | 0.7306 ± 0.0021
LSSGCSVKLRAQ | 0.67 ± 0.015
LSSGPARVMVVL | 0.608 ± 0.04

Sequence | protein stability index
LSSLHFRFLSAG | 0.62 ± 0.062
LSSLLFSPLPPS | 0.7593 ± 0.0019
LSSWTYTRFLHG | 0.749 ± 0.085
LSTCIMFRSCGG | 0.693 ± 0.041
LSTMPLFPSLHR | 0.731 ± 0.025
LSVFDTSLFFSS | 0.787 ± 0.099
LSWSLSSFACEM | 0.65 ± 0.014
LSYRYPLYPILL | 0.647 ± 0.018
LTACLRRTNTLM | 0.503 ± 0.0041
LTASRLAGSGGE | 0.69 ± 0.023
LTATNEARNIDH | 0.659 ± 0.027
LTCYFSASNVLW | 0.615 ± 0.046
LTDCIHERKGTE | 0.743 ± 0.017
LTFGAPGACGLG | 0.719 ± 0.024
LTGAQPTDPNMR | 0.697 ± 0.071
LTGFYFFFDMTL | 0.6366 ± 0.0032
LTLCRSPMSLRA | 0.633 ± 0.12
LTPAPSSCLRSP | 0.6857 ± 0.005
LTPLPPPPLRPP | 0.599 ± 0.024
LTRRCPVGAWGN | 0.692 ± 0.012
